Columns and labels:
[1] = biological target: L48R (Mus musculus); experiment: flow cytometry, GFP-positive transfected HEK-293T cells, fluorochrome-conjugated antibody at 10 ug/ml, Geo-mean relative to wild type
[2] = biological target: human BTLA extracellular region / murine CD28 construct with K41E, on HEK-293T cells (human; mouse) (UniProt P31041); experiment: as above
[3] = biological target: human BTLA extracellular region / murine CD28 construct with Y39R, on HEK-293T cells (human; mouse) (UniProt P31041); experiment: as above
human BTLA extracellular region / murine CD28 construct with Y39R, on HEK-293T cells (human; mouse), sequence (P31041 other isoform, or with tags, fused parts or gaps Y39R Y39R): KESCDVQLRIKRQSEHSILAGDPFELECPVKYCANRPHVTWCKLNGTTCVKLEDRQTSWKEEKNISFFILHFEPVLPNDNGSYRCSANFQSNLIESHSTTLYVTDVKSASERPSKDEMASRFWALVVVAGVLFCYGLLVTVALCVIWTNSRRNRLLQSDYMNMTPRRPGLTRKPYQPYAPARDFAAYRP

[4] = biological target: full length human BTLA expressed on cells (human) (UniProt Q7Z6A9); experiment: cell-based or functional assay

human BTLA extracellular region / murine CD28 construct with K41E, on HEK-293T cells (human; mouse), sequence (P31041 other isoform, or with tags, fused parts or gaps K41E K41E): as the sequence (P31041 other isoform, or with tags, fused parts or gaps Y39R Y39R) above, with R9Y, K11E counted along it

Row | binding as % of binding to wild-type BTLA [1] [%] | binding as % of binding to wild-type BTLA [2] [%] | binding as % of binding to wild-type BTLA [3] [%] | inhibition of NFkB signal, IC50 [4] [nM] | maximal inhibition of NFkB signal [4] [%] | Binder
1 | 102 | 91.4 | 60 | – | – | 2.8.6 (antibody, V domains shown) VH: QVQLKESGPGLVAPSQSLSITCTVSGFSLTTYGVHWVRQSPGKGLEWLGVMWPGGRTSYNPAPMSRLSISKDNSKSQVFLKMNSLQTDDTAMYYCVRGDYEYDYYAMDYWGQGTSVTVSS VL: QIVLSQSPAILSASPGEKVTMTCRASSSVSYMHWYQQKPGSSPKPWIYATSNLASGVPARFSGSGSGTSYSLTISRMEAEDAATYYCHQWSSNPYTFGGGTKLEIK
2 | 145 | 1.8 | 0.76 | – | – | 11.5.1 (antibody, V domains shown) VH: EVQLQESGPSLVKPSQTLSLTCSVTGDSITSAYWNWIRKFPGNKLEYMGYISYSGSTYFNPSLKSRISITRNTSKNQYYLQLNSVTTEDTATYYCARSHYYGYYFDYWGHGTTLTVSS VL: DIVLTQSPASLAVSLGQRATISCRASETIDSYGDSLMHWYQQKAGQPPKLLIYRASNLESGIPARFSGSGSRTDFTLTINPVEADDVATYYCQQTDEDPYTFGGGTKLEIK
3 | – | – | – | 3.8 | 18 | 22B3 hIgG4PAA (antibody, from another filing, V domains shown) VH: QVQLVQSGAEVKKPGASVKVSCKASGFSLSSYGVSWVRQAPGQGLEWMGAISYDGITYYASWAKSRVTMTRDTSTSTVYMELSSLRSEDTAVYYCARGDYYDDYVYVYALDIWGQGTLVTVSS VL: EIVLTQSPGTLSLSPGERATLSCQASQSISTALAWYQQKPGQAPRLLIYAASTLASGIPDRFSGSGSGTDFTLTISRLEPEDFAVYYCQQGYSSSNLDNVFGGGTKVEIKR

Source: US20230235058A1
